This assay addresses T1, Epidermal Growth Factor Receptor (EGFR) protein (UniProt P00533 25-1210, limits assumed).
T1 construct: Bought protein; also called EGFR proteins; antigen EGFR
The assay is described as follows: SPR, Biacore3000, CM5 chip, HBS-EP pH 7.4, mean of three runs.

From patent publication US20130330362A1 (HEFEI TAIRUI BIOTECHNOLOGY, published 2013) come the findings set out here.

Protocol: The binding affinity between antibody and EGFR was assayed with Biacore3000 equipment. The EGFR proteins diluted with 10 mmol/L NaAc and having different pH (4.0, 4.5, 5.0 and 5.5) were formulated, and were pre-concentrated on CM5 chip to select the NaAc diluted protein with optimum pH. […] The binding affinities were computed with the software attached by Biacore3000.

B1: anti-EGFR humanized antibody L4-H3 (antibody, human IgG1, kappa, V domains shown)
VH: VKLLEQSGAEVKKPGASVKVSCKASGFSLTNYGVHWVRQAPGQRLEWMGVIWSGGNTDYNTPFTSRVTITRDTSATTAYMGLSSLRPEDTAVYYCARALTYYDYEFAYWGQGTLVTVSS
VL: ELVMTQSPSSLSASVGDRVNIACRASQSIGTNIHWYQQKPGKAPRLLIKYASESISGVPSRFSGSGSGTDFTLTISSLQPEDFAIYYCQQNNNWPTTFGGGTKVEIKR
notes: also called antibody of the present invention; the antibody
Turning to B1, binding was characterised by a dissociation constant (Kd) of 2.75 nM.

For orientation: Kd means the equilibrium constant for the complex coming apart. Low values mean tighter binding, high ones weaker binding.
